Results taken from paper doi:10.1101/2021.05.11.443575.

Key:
[1] = target: FLAG-PfDdi1^D262N (recombinant full length catalytically inactive PfDdi1 with N-terminal FLAG tag) (P. falciparum); experiment: native MS
[2] = target: FLAG-PfDdi1 (recombinant full length PfDdi1 with N-terminal FLAG tag) (P. falciparum); experiment: native MS

| Substance | stoichiometry N [1] | stoichiometry N [2] |
| --- | --- | --- |
| FLAG-PfDdi1^D262N (recombinant full length catalytically inactive PfDdi1 with N-terminal FLAG tag) (enzyme) | 2 |  |
| FLAG-PfDdi1 (recombinant full length PfDdi1 with N-terminal FLAG tag) (enzyme) |  | 2 |
